Measured values: US6284729A, “Methods and reagents for regulating obesity” (Children's Medical Center Corporation, priority 1998, dated 2001)

T1: syndecan-1 ectodomain (Mus musculus, UniProt P18828)
T1 sequence (P18828 23-255 limits assumed): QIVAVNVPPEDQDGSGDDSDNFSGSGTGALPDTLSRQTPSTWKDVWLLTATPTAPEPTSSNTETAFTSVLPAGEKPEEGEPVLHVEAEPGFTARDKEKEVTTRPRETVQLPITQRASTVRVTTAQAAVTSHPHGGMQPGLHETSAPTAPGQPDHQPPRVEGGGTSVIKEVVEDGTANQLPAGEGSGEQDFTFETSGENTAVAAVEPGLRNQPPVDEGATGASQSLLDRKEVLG

B1: agouti: 131 aa paracrine signaling molecule; switches hair follicle melanocytes from black to yellow pigment (protein, UniProt Q03288 23-131, looked up)
Agouti-signaling protein: HLALEETLGDDRSLRSNSSMNSLDFSSVSIVALNKKSKKISRKEAEKRKRSSKKKASMKKVARPPPPSPCVATRDSCKPPAPACCDPCASCQCRFFGSACTCRVLNPNC
B2: syndecan-1 ectodomain: soluble extracellular domain of syndecan-1, a transmembrane heparan sulfate proteoglycan (protein, UniProt P18827 23-254, looked up)
extracellular domain: QIVATNLPPEDQDGSGDDSDNFSGSGAGALQDITLSQQTPSTWKDTQLLTAIPTSPEPTGLEATAASTSTLPAGEGPKEGEAVVLPEVEPGLTAREQEATPRPRETTQLPTTHLASTTTATTAQEPATSHPHRDMQPGHHETSTPAGPSQADLHTPHTEDGGPSATERAAEDGASSQLPAAEGSGEQDFTFETSGENTAVVAVEPDRRNQSPVDQGATGASQGLLDRKEVLG
modifications: extracellular domain
notes: soluble extracellular domain of syndecan-1, a transmembrane heparan sulfate proteoglycan

Key:
syndecan-1 ectodomain = biological target: T1, syndecan-1 ectodomain; experiment: Binding of radioactive syndecan-1 ectodomain to neuropeptides immobilized on nitrocellulose membrane (autoradiography); conditions: peptides immobilized on nitrocellulose, UV cross-linked
Method: Binding of syndecan-1 ectodomain to neuropeptides involved in body weight regulation was tested. Varying concentrations of the peptides were immobilized on a nitrocellulose membrane (for example, 1000 nmol) and fixed by UV cross-linking. The membrane was incubated with radioactive syndecan-1 ectodomain to allow binding and then washed and analyzed by autoradiography.

Mc3r = conditions: recombinant protein; cited from earlier work
Mc4r = conditions: recombinant protein; cited from earlier work
melanocortin-4 receptor = experiment: MC4-R adenylyl cyclase assay (conversion of ATP to cAMP) in membranes from 293 cells transfected with the melanocortin-4 receptor, with ndp-MSH; assay type: biochemical; conditions: for potentiation of MC4-R inhibition by AGRP (formation of cAMP from ATP): membranes preincubated with substance plus AGRP, FIGS. 1a and 1b
Method: Based on the interaction of AGRP and syndecan-1, the putative interaction between agouti/AGRP and syndecaniheparan sulfate in a functional assay was tested. Membranes from 293 cells transfected with the melanocortin-4 receptor were preincubated with buffer or as indicated with AGRP, heparan sulfate, syndecan-1 ectodomain, heparan sulfate plus AGRP, and syndecan-1 ectodomain plus AGRP. Samples were then mixed with or without the indicated concentration of ndp-{character pullout}MSH and conversion of ATP to cAMP measured in the assay.

Molecule | interaction with syndecan-1 (binding of radioactive syndecan-1 ectodomain to immobilized peptide) (syndecan-1 ectodomain) | potentiation of MC4-R inhibition by AGRP (formation of cAMP from ATP) (melanocortin-4 receptor) | other results
FGF-2: fibroblast growth factor-2, heparin-binding growth factor | interact with syndecan-1 | – | –
AGRP: Agouti-related protein, 132 aa hypothalamic analog of agouti; inhibitor of MC3-R and MC4-R (SSRRCVRLHESCLGQQVPCCDPCATCYCRFFNAFCYCRKLGTAMNPCSRT; UniProt O00253 83-132, looked up) | interact with syndecan-1 | – | antagonism of Mc3r (Mc3r): potent, selective antagonist; antagonism of Mc4r (Mc4r): potent, selective antagonist
heparan sulfate [reference compound] | – | potentiates melanocortin-4R (MC4-R) inhibition by AGRP | potency of AGRP at inhibiting MC4-R activation in presence of the substance (melanocortin-4 receptor; 1 μg/ml heparan sulfate): 10 nM AGRP is as potent as 100 nM AGRP
NC(=O)CC[C@@H]1NC(=O)[C@H](Cc2ccccc2)NC(=O)[C@H](Cc2ccc(O)cc2)NC(=O)[C@@H](N)CSSC[C@@H](C(=O)N2CCC[C@H]2C(=O)N[C@@H](CCCN=C(N)N)C(=O)NCC(N)=O)NC(=O)[C@H](CC(N)=O)NC1=O [vasopressin, reference compound] | interact with syndecan-1 | – | –
B1 | interact with syndecan-1 | – | –
B2 | – | potentiates melanocortin-4R (MC4-R) inhibition by AGRP | potency of AGRP at inhibiting MC4-R activation in presence of the substance (melanocortin-4 receptor; 1 ng/ml syndecan-1 ectodomain): 10 nM AGRP is as potent as 100 nM AGRP; potentiation of the action of agouti on the MC4-R (melanocortin-4 receptor; biochemical assay, agouti instead of AGRP): potentiates the action of agouti on the MC4-R; concentration dependence of potentiation of AGRP's action (melanocortin-4 receptor; low versus higher concentrations of syndecan-1 ectodomain): potentiation is less pronounced at higher concentrations
